What was measured:
[1] = biological target: Noregen, recombinant norrin-derived growth factor (human) (UniProt Q00604); experiment: AUC
[2] = biological target: Noregen, recombinant norrin-derived growth factor (human) (UniProt Q00604); experiment: intact LC/ES-MS

Sequence of Noregen, recombinant norrin-derived growth factor (Q00604 25-133): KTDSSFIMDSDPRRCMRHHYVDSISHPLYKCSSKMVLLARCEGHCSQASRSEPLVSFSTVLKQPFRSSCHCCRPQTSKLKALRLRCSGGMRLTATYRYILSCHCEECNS

percent of total content in the dimer peak [1]: 99.9%
stoichiometry N [1]: 2
percent present as dimer [2]: 98%
stoichiometry N [2]: 2
Substance: Noregen, recombinant norrin-derived growth factor (from UniProt Q00604 25-133) (ligand)
